Usually IC50 stands for the midpoint of a concentration-inhibition curve.

The assay deals with T1, recombinant MCL1 (human, UniProt Q07820 1-350).
T1 chain: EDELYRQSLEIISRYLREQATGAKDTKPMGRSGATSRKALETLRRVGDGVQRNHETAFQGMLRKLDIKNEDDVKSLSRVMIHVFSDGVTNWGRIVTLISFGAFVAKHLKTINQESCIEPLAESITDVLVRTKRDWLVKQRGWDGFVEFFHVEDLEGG
As to the kind of experiment: FP.

No end group written: not given here.

B1: p73TD-derived peptide α1α2 (peptide)
chain: RENFEILMKLKESLELMELVPQPLVDSYRQQQQLLQR
Consider B1, for which the IC50 amounted to 882 nM.

B2: p73TD-derived peptide β1α1 (peptide)
chain: DEDTYYLQVRGRENFEILMKLKESLELMELV-NH2
Take B2: the IC50 turned out to be 1090 nM.

B3: p73TD-derived peptide α1 (peptide)
chain: RENFEILMKLKESLELMELV
For B3, the IC50 was 2630 nM.

Values taken from article PMC7641127 (2020).
